Reference: IntAct's records for PubMed 25910212

B1: ATP synthase mitochondrial F1 complex assembly factor 2 (Homo sapiens), Q8N5M1 (parent)
chain: MWRSCLRLRDGGRRLLNRPAGGPSASMSPGPTIPSPARAYAPPTERKRFYQNVSITQGEGGFEINLDHRKLKTPQAKLFTVPSEALAIAVATEWDSQQDTIKYYTMHLTTLCNTSLDNPTQRNKDQLIRAAVKFLDTDTICYRVEEPETLVELQRNEWDPIIEWAEKRYGVEISSSTSIMGPSIPAKTREVLVSHLASYNTWALQGIEFVAAQLKSMVLTLGLIDLRLTVEQAVLLSRLEEEYQIQKWGNIEWAHDYELQELRARTAAGTLFIHLCSESTTVKHKLLKE
partner: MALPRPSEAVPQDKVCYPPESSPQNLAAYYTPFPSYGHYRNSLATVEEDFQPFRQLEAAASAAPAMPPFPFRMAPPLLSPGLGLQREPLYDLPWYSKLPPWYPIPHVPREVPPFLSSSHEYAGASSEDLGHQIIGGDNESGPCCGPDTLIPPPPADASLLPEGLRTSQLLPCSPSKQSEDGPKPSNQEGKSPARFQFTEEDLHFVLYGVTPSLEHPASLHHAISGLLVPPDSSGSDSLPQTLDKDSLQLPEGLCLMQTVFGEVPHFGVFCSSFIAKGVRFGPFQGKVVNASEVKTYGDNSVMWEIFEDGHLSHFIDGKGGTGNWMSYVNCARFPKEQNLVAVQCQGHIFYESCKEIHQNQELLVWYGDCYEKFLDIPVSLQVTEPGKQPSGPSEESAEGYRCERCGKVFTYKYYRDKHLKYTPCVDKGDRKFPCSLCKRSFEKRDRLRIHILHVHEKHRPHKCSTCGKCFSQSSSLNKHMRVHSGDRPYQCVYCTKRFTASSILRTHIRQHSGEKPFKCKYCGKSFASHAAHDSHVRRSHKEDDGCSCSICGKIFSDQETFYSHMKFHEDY
B2: U4/U6 small nuclear ribonucleoprotein Prp31 (Homo sapiens), Q8WWY3 (parent)
chain: MSLADELLADLEEAAEEEEGGSYGEEEEEPAIEDVQEETQLDLSGDSVKTIAKLWDSKMFAEIMMKIEEYISKQAKASEVMGPVEAAPEYRVIVDANNLTVEIENELNIIHKFIRDKYSKRFPELESLVPNALDYIRTVKELGNSLDKCKNNENLQQILTNATIMVVSVTASTTQGQQLSEEELERLEEACDMALELNASKHRIYEYVESRMSFIAPNLSIIIGASTAAKIMGVAGGLTNLSKMPACNIMLLGAQRKTLSGFSSTSVLPHTGYIYHSDIVQSLPPDLRRKAARLVAAKCTLAARVDSFHESTEGKVGYELKDEIERKFDKWQEPPPVKQVKPLPAPLDGQRKKRGGRRYRKMKERLGLTEIRKQANRMSFGEIEEDAYQEDLGFSLGHLGKSGSGRVRQTQVNEATKARISKTLQRTLQKQSVVYGGKSTIRDRSSGTASSVAFTPLQGLEIVNPQAAEKKVAEANQKYFSSMAEFLKVKGEKSGLMST
partner: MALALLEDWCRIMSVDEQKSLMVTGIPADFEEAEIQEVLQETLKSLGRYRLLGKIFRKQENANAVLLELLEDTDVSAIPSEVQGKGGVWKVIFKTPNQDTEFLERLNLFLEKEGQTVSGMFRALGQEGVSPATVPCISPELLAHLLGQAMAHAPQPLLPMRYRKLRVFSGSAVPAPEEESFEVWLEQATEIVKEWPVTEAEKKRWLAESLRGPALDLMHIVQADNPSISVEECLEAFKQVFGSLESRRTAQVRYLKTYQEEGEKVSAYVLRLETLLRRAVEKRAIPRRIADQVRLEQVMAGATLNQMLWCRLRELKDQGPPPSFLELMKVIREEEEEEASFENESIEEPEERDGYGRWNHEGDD
B3: Beta-crystallin B1 (Homo sapiens), P53674 (parent)
chain: MSQAAKASASATVAVNPGPDTKGKGAPPAGTSPSPGTTLAPTTVPITSAKAAELPPGNYRLVVFELENFQGRRAEFSGECSNLADRGFDRVRSIIVSAGPWVAFEQSNFRGEMFILEKGEYPRWNTWSSSYRSDRLMSFRPIKMDAQEHKISLFEGANFKGNTIEIQGDDAPSLWVYGFSDRVGSVKVSSGTWVGYQYPGYRGYQYLLEPGDFRHWNEWGAFQPQMQSLRRLRDKQWHLEGSFPVLATEPPK
partner: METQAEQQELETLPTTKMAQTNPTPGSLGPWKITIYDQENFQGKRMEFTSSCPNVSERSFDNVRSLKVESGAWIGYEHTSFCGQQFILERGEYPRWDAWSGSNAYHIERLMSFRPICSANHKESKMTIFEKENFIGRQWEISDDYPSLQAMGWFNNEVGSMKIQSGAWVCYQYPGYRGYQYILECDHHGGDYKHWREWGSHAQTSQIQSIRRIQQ
B4: Myozenin-2 (Homo sapiens), Q9NPC6 (parent)
chain: MLSHNTMMKQRKQQATAIMKEVHGNDVDGMDLGKKVSIPRDIMLEELSHLSNRGARLFKMRQRRSDKYTFENFQYQSRAQINHSIAMQNGKVDGSNLEGGSQQAPLTPPNTPDPRSPPNPDNIAPGYSGPLKEIPPEKFNTTAVPKYYQSPWEQAISNDPELLEALYPKLFKPEGKAELPDYRSFNRVATPFGGFEKASRMVKFKVPDFELLLLTDPRFMSFVNPLSGRRSFNRTPKGWISENIPIVITTEPTDDTTVPESEDL
B5: U4/U6 small nuclear ribonucleoprotein Prp31 (Homo sapiens), Q8WWY3 (parent)
chain: B2 chain
partner: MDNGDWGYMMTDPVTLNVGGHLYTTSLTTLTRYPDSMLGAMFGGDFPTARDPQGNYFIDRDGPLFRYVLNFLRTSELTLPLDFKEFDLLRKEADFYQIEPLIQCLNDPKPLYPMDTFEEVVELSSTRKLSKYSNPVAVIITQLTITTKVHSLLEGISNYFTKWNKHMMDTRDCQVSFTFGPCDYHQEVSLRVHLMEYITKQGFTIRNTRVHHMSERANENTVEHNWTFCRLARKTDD
B6: ATP synthase mitochondrial F1 complex assembly factor 2 (Homo sapiens), Q8N5M1 (parent)
chain: B1 chain
partner: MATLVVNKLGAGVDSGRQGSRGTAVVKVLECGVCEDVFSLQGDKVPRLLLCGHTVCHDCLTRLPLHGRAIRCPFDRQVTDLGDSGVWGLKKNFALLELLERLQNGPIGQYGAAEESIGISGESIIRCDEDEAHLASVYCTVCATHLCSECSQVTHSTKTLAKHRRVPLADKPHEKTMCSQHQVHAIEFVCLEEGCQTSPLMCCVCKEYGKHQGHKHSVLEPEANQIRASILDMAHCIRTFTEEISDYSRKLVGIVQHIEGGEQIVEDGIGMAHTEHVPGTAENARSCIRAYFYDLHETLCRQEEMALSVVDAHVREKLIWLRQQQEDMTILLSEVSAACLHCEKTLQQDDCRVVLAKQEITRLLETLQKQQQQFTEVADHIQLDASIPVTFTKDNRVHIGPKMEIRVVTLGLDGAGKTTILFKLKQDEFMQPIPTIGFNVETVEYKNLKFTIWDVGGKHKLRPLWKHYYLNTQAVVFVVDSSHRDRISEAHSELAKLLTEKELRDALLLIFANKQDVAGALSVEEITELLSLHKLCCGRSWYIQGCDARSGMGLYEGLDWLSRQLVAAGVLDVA
B7: E3 ubiquitin-protein ligase Midline-1 (Homo sapiens), O15344 (parent)
chain: METLESELTCPICLELFEDPLLLPCAHSLCFNCAHRILVSHCATNESVESITAFQCPTCRHVITLSQRGLDGLKRNVTLQNIIDRFQKASVSGPNSPSETRRERAFDANTMTSAEKVLCQFCDQDPAQDAVKTCVTCEVSYCDECLKATHPNKKPFTGHRLIEPIPDSHIRGLMCLEHEDEKVNMYCVTDDQLICALCKLVGRHRDHQVAALSERYDKLKQNLESNLTNLIKRNTELETLLAKLIQTCQHVEVNASRQEAKLTEECDLLIEIIQQRRQIIGTKIKEGKVMRLRKLAQQIANCKQCIERSASLISQAEHSLKENDHARFLQTAKNITERVSMATASSQVLIPEINLNDTFDTFALDFSREKKLLECLDYLTAPNPPTIREELCTASYDTITVHWTSDDEFSVVSYELQYTIFTGQANVVSLCNSADSWMIVPNIKQNHYTVHGLQSGTKYIFMVKAINQAGSRSSEPGKLKTNSQPFKLDPKSAHRKLKVSHDNLTVERDESSSKKSHTPERFTSQGSYGVAGNVFIDSGRHYWEVVISGSTWYAIGLAYKSAPKHEWIGKNSASWALCRCNNNWVVRHNSKEIPIEPAPHLRRVGILLDYDNGSIAFYDALNSIHLYTFDVAFAQPVCPTFTVWNKCLTIITGLPIPDHLDCTEQLP

Variants of: B1
Conditions: with prd14_human PRDM14, Q9GZV8
W94R was tested, and the “effect of a mutation on the interaction” value was “disrupting interaction strength”.

Variants of: B2
Conditions: with pnma2_human PNMA2, Q9UL42
L107V was tested, and the “effect of a mutation on the interaction” value was “with no effect”.

Variants of: B3
Conditions: with crba1_human CRYBA1, P05813
For S228P, the “effect of a mutation on the interaction” value was “disrupting interaction strength”.

Variants of: B4
Conditions: with actn2_human ACTN2, P35609
Sequence of actn2_human ACTN2, P35609 (P35609 whole entry): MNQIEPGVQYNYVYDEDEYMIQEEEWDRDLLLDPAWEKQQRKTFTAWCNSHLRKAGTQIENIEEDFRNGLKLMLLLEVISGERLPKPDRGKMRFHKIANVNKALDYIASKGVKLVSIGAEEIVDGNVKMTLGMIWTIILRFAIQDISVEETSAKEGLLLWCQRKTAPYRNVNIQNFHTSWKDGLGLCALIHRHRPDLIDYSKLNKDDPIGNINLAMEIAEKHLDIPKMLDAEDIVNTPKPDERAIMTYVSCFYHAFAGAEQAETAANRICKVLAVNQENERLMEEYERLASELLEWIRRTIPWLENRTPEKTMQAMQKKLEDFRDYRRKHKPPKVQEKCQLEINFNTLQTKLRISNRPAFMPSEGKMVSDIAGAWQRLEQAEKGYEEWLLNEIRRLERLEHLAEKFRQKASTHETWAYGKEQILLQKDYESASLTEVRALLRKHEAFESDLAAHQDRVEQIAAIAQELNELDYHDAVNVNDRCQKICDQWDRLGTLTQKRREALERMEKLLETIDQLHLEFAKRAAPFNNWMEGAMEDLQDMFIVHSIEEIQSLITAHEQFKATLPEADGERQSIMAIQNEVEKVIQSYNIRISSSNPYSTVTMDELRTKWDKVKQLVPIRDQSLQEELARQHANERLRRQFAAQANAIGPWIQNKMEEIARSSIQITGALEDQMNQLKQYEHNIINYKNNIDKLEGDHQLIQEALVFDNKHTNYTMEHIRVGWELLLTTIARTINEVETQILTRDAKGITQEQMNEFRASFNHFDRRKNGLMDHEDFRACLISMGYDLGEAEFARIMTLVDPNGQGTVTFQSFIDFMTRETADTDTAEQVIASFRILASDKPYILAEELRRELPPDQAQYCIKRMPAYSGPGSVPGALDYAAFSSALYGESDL
S48P was tested, and the “effect of a mutation on the interaction” value was “with no effect”.
Q10P was tested, and the “effect of a mutation on the interaction” value was “with no effect”.
With I246M the “effect of a mutation on the interaction” value was “with no effect”.

Variants of: B4
Conditions: with actn1_human ACTN1, P12814
Sequence of actn1_human ACTN1, P12814 (P12814 whole entry): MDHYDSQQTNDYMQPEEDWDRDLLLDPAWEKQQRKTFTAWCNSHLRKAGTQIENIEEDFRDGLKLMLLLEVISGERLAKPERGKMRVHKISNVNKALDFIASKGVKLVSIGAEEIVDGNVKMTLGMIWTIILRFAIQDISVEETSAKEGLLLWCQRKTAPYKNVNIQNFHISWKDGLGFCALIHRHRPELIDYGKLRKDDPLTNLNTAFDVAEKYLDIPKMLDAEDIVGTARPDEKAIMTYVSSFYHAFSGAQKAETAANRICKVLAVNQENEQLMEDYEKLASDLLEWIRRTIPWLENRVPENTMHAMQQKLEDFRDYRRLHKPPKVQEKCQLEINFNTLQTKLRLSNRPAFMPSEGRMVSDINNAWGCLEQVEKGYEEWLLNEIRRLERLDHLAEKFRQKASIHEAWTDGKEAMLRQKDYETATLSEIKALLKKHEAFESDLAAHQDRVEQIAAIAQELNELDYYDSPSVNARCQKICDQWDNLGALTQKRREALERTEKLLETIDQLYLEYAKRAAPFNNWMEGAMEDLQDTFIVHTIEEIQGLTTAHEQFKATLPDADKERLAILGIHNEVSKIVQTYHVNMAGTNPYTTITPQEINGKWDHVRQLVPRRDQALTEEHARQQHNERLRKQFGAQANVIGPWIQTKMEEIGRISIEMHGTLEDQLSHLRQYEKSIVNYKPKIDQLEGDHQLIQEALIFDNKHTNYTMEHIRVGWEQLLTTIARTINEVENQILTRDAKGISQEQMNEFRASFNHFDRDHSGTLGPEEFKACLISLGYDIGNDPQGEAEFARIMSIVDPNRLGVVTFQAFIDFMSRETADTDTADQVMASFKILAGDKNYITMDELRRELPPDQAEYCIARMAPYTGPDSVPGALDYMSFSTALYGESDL
In the case of S48P, the “effect of a mutation on the interaction” value is reported as “with no effect”.
In the case of Q10P, the “effect of a mutation on the interaction” value is reported as “with no effect”.
In the case of I246M, the “effect of a mutation on the interaction” value is reported as “with no effect”.

Variants of: B4
Conditions: with actn4_human ACTN4, O43707
Sequence of actn4_human ACTN4, O43707 (O43707 whole entry): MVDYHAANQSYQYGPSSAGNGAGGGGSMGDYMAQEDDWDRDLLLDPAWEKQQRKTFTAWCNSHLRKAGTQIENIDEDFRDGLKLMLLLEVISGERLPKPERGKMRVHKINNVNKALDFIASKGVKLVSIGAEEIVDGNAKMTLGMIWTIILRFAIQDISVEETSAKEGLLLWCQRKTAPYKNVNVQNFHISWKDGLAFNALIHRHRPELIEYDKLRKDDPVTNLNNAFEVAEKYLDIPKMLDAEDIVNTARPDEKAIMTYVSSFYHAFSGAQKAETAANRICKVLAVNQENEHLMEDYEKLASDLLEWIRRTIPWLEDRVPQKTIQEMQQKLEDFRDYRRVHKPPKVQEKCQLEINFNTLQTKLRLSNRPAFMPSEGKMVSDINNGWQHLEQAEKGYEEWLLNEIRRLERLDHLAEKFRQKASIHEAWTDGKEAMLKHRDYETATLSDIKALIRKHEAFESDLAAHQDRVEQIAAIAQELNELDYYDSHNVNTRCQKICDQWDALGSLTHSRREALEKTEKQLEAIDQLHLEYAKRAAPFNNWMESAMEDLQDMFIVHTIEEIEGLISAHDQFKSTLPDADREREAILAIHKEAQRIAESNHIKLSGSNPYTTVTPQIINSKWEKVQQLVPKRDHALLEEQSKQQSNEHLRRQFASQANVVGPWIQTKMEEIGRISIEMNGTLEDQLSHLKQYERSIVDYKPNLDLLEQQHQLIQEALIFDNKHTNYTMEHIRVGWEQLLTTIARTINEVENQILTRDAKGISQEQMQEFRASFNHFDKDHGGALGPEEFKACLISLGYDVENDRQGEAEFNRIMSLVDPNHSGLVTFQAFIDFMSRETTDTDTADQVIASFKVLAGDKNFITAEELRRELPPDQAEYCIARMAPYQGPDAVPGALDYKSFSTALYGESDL
With S48P the “effect of a mutation on the interaction” value was “with no effect”.
Q10P was tested, and the “effect of a mutation on the interaction” value was “with no effect”.
I246M was tested, and the “effect of a mutation on the interaction” value was “with no effect”.

Variants of: B5
Conditions: with kctd6_human KCTD6, Q8NC69
In the case of L107V, the “effect of a mutation on the interaction” value is reported as “with no effect”.

Variants of: B6
Conditions: with tri23_human TRIM23, P36406
W94R was tested, and the “effect of a mutation on the interaction” value was “disrupting interaction strength”.

Variants of: B7
Conditions: with meox1_human MEOX1, P50221
Sequence of meox1_human MEOX1, P50221 (P50221 whole entry): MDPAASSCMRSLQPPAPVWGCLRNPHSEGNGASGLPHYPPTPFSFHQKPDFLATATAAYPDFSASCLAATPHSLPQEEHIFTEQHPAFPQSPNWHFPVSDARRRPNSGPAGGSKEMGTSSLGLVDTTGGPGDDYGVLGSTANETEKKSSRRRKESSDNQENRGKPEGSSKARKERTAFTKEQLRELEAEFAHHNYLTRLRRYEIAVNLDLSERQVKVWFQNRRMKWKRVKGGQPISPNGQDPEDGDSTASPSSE
With P151L the “effect of a mutation on the interaction” value was “with no effect”.
For L626P, the “effect of a mutation on the interaction” value was “with no effect”.
In the case of C266R, the “effect of a mutation on the interaction” value is reported as “with no effect”.
For K370E, the “effect of a mutation on the interaction” value was “with no effect”.
